# Data from patent publication US20120090043A1, “TARGETS FOR RETROVIRUS ASSOCIATED DISEASES” (priority 2009, published 2012).
# B1: LNX2: human host interactor protein, Gene ID 222484, expressed from transfected ORF vector (protein)
# chain: MGTTSDEMVSVEQTSSSSLNPLCFECGQQHWTRENHLYNYQNEVDDDLVCHICLQPLLQPLDTPCGHTFCYKCLRNFLQEKDFCPLDRKRLHFKLCKKSSILVHKLLDKLLVLCPFSSVCKDVMQRCDLEAHLKNRCPGASHRRVALERRKTSRTQAEIENENGPTLLDPAGTLSPEADCLGTGAVPVERHLTSASLSTWSEEPGLDNPAFEESAGADTTQQPLSLPEGEITTIEIHRSNPYIQLGISIVGGNETPLINIVIQEVYRDGVIARDGRLLAGDQILQVNNYNISNVSHNYARAVLSQPCNTLHLTVLRERRFGNRAHNHSDSNSPREEIFQVALHKRDSGEQLGIKLVRRTDEPGVFILDLLEGGLAAQDGRLSSNDRVLAINGHDLKYGTPELAAQIIQASGERVNLTIARPGKPQPGNTIREAGNHSSSSQHHTPPPYYSRPSSHKDLTQCVTCQEKHITVKKEPHESLGMTVAGGRGSKSGELPIFVTSVPPHGCLARDGRIKRGDVLLNINGIDLTNLSHSEAVAMLKASAASPAVALKALEVQIVEEATQNAEEQPSTFSENEYDASWSPSWVMWLGLPSTLHSCHDIVLRRSYLGSWGFSIVGGYEENHTNQPFFIKTIVLGTPAYYDGRLKCGDMIVAVNGLSTVGMSHSALVPMLKEQRNKVTLTVICWPGSLV
# B2: TFIP11: human host interactor protein, Gene ID 24144, expressed from transfected ORF vector (protein)
# chain: MSLSHLYRDGEGRIDDDDDERENFEITDWDLQNEFNPNRQRHWQTKEEATYGVWAERDSDDERPSFGGKRARDYSAPVNFISAGLKKGAAEEAELEDSDDEEKPVKQDDFPKDFGPRKLKTGGNFKPSQKGFAGGTKSFMDFGSWERHTKGIGQKLLQKMGYVPGRGLGKNAQGIINPIEAKQRKGKGAVGAYGSERTTQSMQDFPVVDSEEEAEEEFQKELSQWRKDPSGSKKKPKYSYKTVEELKAKGRISKKLTAPQKELSQVKVIDMTGREQKVYYSYSQISHKHNVPDDGLPLQSQQLPQSGKEAKAPGFALPELEHNLQLLIDLTEQEIIQNDRQLQYERDMVVNLFHELEKMTEVLDHEERVISNLSKVLEMVEECERRMQPDCSNPLTLDECARIFETLQDKYYEEYRMSDRVDLAVAIVYPLMKEYFKEWDPLKDCTYGTEIISKWKSLLENDQLLSHGGQDLSADAFHRLIWEVWMPFVRNIVTQWQPRNCDPMVDFLDSWVHIIPVWILDNILDQLIFPKLQKEVENWNPLTDTVPIHSWIHPWLPLMQARLEPLYSPIRSKLSSALQKWHPSDSSAKLILQPWKDVFTPGSWEAFMVKNIVPKLGMCLGELVINPHQQHMDAFYWVIDWEGMISVSSLVGLLEKHFFPKWLQVLCSWLSNSPNYEEITKWYLGWKSMFSDQVLAHPSVKDKFNEALDIMNRAVSSNVGAYMQPGARENIAYLTHTERRKDFQYEAMQERREAENMAQRGIGVAASSVPMNFKDLIETKAEEHNIVFMPVIGKRHEGKQLYTFGRIVIYIDRGVVFVQGEKTWVPTSLQSLIDMAK
# B3: KRT8: human host interactor protein, Gene ID 3856, expressed from transfected ORF vector (protein)
# chain: MSIRVTQKSYKVSTSGPRAFSSRSYTSGPGSRISSSSFSRVGSSNFRGGLGGGYGGASGMGGITAVTVNQSLLSPLVLEVDPNIQAVRTQEKEQIKTLNNKFASFIDKVRFLEQQNKMLETKWSLLQQQKTARSNMDNMFESYINNLRRQLETLGQEKLKLEAELGNMQGLVEDFKNKYEDEINKRTEMENEFVLIKKDVDEAYMNKVELESRLEGLTDEINFLRQLYEEEIRELQSQISDTSVVLSMDNSRSLDMDSIIAEVKAQYEDIANRSRAEAESMYQIKYEELQSLAGKHGDDLRRTKTEISEMNRNISRLQAEIEGLKGQRASLEAAIADAEQRGELAIKDANAKLSELEAALQRAKQDMARQLREYQELMNVKLALDIEIATYRKLLEGEESRLESGMQNMSIHTKTTSGYAGGLSSAYGGLTSPGLSYSLGSSFGSGAGSSSFSRTSSSRAVVVKKIETRDGKLVSESSDVLPK
# B4: TSC22D4: human host interactor protein, Gene ID 81628, expressed from transfected ORF vector (protein)
# chain: MSGGKKKSSFQITSVTTDYEGPGSPGASDPPTPQPPTGPPPRLPNGEPSPDPGGKGTPRNGSPPPGAPSSRFRVVKLPHGLGEPYRRGRWTCVDVYERDLEPHSFGGLLEGIRGASGGAGGRSLDSRLELASLGLGAPTPPSGLSQGPTSWLRPPPTSPGPQARSFTGGLGQLVVPSKAKAEKPPLSASSPQQRPPEPETGESAGTSRAATPLPSLRVEAEAGGSGARTPPLSRRKAVDMRLRMELGAPEEMGQVPPLDSRPSSPALYFTHDASLVHKSPDPFGAVAAQKFSLAHSMLAISGHLDSDDDSGSGSLVGIDNKIEQAMDLVKSHLMFAVREEVEVLKEQIRELAERNAALEQENGLLRALASPEQLAQLPSSGVPRLGPPAPNGPSV
# B5: DLX2: human host interactor protein, Gene ID 1746, expressed from transfected ORF vector (protein)
# chain: MTGVFDSLVADMHSTQIAASSTYHQHQQPPSGGGAGPGGNSSSSSSLHKPQESPTLPVSTATDSSYYTNQQHPAGGGGGGGSPYAHMGSYQYQASGLNNVPYSAKSSYDLGYTAAYTSYAPYGTSSSPANNEPEKEDLEPEIRIVNGKPKKVRKPRTIYSSFQLAALQRRFQKTQYLALPERAELAASLGLTQTQVKIWFQNRRSKFKKMWKSGEIPSEQHPGASASPPCASPPVSAPASWDFGVPQRMAGGGGPGSGGSGAGSSGSSPSSAASAFLGNYPWYHQTSGSASHLQATAPLLHPTQTPQPHHHHHHHGGGGAPVSAGTIF
# B6: GCC1: human host interactor protein, Gene ID 79571, expressed from transfected ORF vector (protein)
# chain: MEKFGMNFGGGPSKKDLLETIETQKKQLLQYQARLKDVVRAYKSLLKEKEALEASIKVLSVSHEADVGLAGVQLPGLTFPDSVDDRCSTHSEDSTGTATSLDTAASLTSTKGEFGVEDDRPARGPPPPKSEEASWSESGVSSSSGDGPFAGGEVDKRLHQLKTQLATLTSSLATVTQEKSRMEASYLADKKKMKQDLEDASNKAEEERARLEGELKGLQEQIAETKARLITQQHDRAQEQSDHALMLRELQKLLQEERTQRQDLELRLEETREALAGRAYAAEQMEGFELQTKQLTREVEELKSELQAIRDEKNQPDPRLQELQEEAARLKSHFQAQLQQEMRKTALAEDQLRQQSQVEEQRVAALENQISEVSELLGTYEKAKQKDQLAIQKLKERILQLDLENKTLALAASSRSPLDSHGEESSLDVNVLKDKMEKLKRLLQVAARKSQVTLDVEKLCDLEIMPSSEAADGEKATALYYQQELKQLKEEFERYKMRAQVVLKSKNTKDGNLGKELEAAQEQLAELKEKYISLRLSCEELEHQHQQEADDWKQELARLQQLHRQELERCQLDFRDRTLKLEEELHKQRDRALAVLTEKDLELEQLRSVALASGLPGRRSPVGGGGPGDPADTSSSDSLTQALQLAAANEPTFFLYAEQLARKEVEITSLRKQKHRLEVEVHQLQDRLLEEGERHREEVAALQSHIEKNIRDQSREGANLEYLKNIIYRFLTLPDSLGRQQTLTAILTILHFSPEEKQVIMRLPTSASWWPSGKR
# B7: LZTS2: human host interactor protein, Gene ID 84445, expressed from transfected ORF vector (protein)
# chain: MAIVQTLPVPLEPAPEAATAPQAPVMGSVSSLISGRPCPGGPAPPRHHGPPGPTFFRQQDGLLRGGYEAQEPLCPAVPPRKAVPVTSFTYINEDFRTESPPSPSSDVEDAREQRAHNAHLRGPPPKLIPVSGKLEKNMEKILIRPTAFKPVLPKPRGAPSLPSFMGPRATGLSGSQGSLTQLFGGPASSSSSSSSSSAADKPLAFSGWASGCPSGTLSDSGRNSLSSLPTYSTGGAEPTTSSPGGHLPSHGSGRGALPGPARGVPTGPSHSDSGRSSSSKSTGSLGGRVAGGLLGSGTRASPDSSSCGERSPPPPPPPPSDEALLHCVLEGKLRDREAELQQLRDSLDENEATMCQAYEERQRHWQREREALREDCAAQAQRAQRAQQLLQLQVFQLQQEKRQLQDDFAQLLQEREQLERRCATLEREQRELGPRLEETKWEVCQKSGEISLLKQQLKESQAELVQKGSELVALRVALREARATLRVSEGRARGLQEAARARELELEACSQELQRHRQEAEQLREKAGQLDAEAAGLREPPVPPATADPFLLAESDEAKVQRAAAGVGGSLRAQVERLRVELQRERRRGEEQRDSFEGERLAWQAEKEQVIRYQKQLQHNYIQMYRRNRQLEQELQQLSLELEARELADLGLAEQAPCICLEEITATEI
# B8: FANCG: human host interactor protein, Gene ID 2189, expressed from transfected ORF vector (protein)
# chain: MSRQTTSVGSSCLDLWREKNDRLVRQAKVAQNSGLTLRRQQLAQDALEGLRGLLHSLQGLPAAVPVLPLELTVTCNFIILRASLAQGFTEDQAQDIQRSLERVLETQEQQGPRLEQGLRELWDSVLRASCLLPELLSALHRLVGLQAALWLSADRLGDLALLLETLNGSQSGASKDLLLLLKTWSPPAEELDAPLTLQDAQGLKDVLLTAFAYRQGLQELITGNPDKALSSLHEAASGLCPRPVLVQVYTALGSCHRKMGNPQRALLYLVAALKEGSAWGPPLLEASRLYQQLGDTTAELESLELLVEALNVPCSSKAPQFLIEVELLLPPPDLASPLHCGTQSQTKHILASRCLQTGRAGDAAEHYLDLLALLLDSSEPRFSPPPSPPGPCMPEVFLEAAVALIQAGRAQDALTLCEELLSRTSSLLPKMSRLWEDARKGTKELPYCPLWVSATHLLQGQAWVQLGAQKVAISEFSRCLELLFRATPEEKEQGAAFNCEQGCKSDAALQQLRAAALISRGLEWVASGQDTKALQDFLLSVQMCPGNRDTYFHLLQTLKRLDRRDEATALWWRLEAQTKGSHEDALWSLPLYLESYLSWIRPSDRDAFLEEFRTSLPKSCDL
# Key:
# [1] = system: HIV-1 LTR promoter transactivation by HIV-1 Tat; test: Transactivation assay, HIV-1 LTR luciferase reporter with HIV-1 Tat; format: cell-based; settings: HEK293 cells co-transfected with pHIV1LTR-Luc, HIV-1 Tat and the human ORF; relative luciferase activity 24 h post-transfection; positive if >=2 or <=0.5 and p<0.05
# Summary of the method: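 HEK293 cells (10^4) were calcium-phosphate co-transfected with the HIV-1 LTR-luciferase reporter plus HIV-1 Tat, or the HTLV-1 LTR-luciferase reporter plus HTLV-1 Tax, each with a human ORF expression plasmid. A hit required relative activity ≥2 or ≤0.5 with paired t-test p<0.05.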
# [2] = system: HTLV-1 LTR promoter transactivation by HTLV-1 Tax; test: Transactivation assay, HTLV-1 LTR luciferase reporter with HTLV-1 Tax; format: cell-based; settings: HEK293 cells co-transfected with pHTLV1LTR-Luc, HTLV-1 Tax and the human ORF; relative luciferase activity 24 h post-transfection; positive if >=2 or <=0.5 and p<0.05
Molecule,HIV_LTR transactiv. [1] [fold change],HTLV_LTR transactiv. [2] [fold change]
B1,0.26,0.28
B2,0.19,0.45
B3,0.19,0.24
B4,5.43,3.75
B5,0.24,0.30
B6,3.78,0.29
B7,0.49,0.23
B8,0.27,3.48
